Data taken from patent publication US20120316071A1 (published 2012).
Read-outs that look alike come from different tables or passages of the source.

B1: Fab VH1-46_IGHD6-6*01_IGHJ1*01 S102A/S103P/S104F/H111F G55A & L6_IGKJ1*01 (Fab, V domains shown)
VH: QVQLVQSGAEVKKPGASVKVSCKASGYTFTSYYMHWVRQAPGQGLEWMGIINPSAGSTSYAQKFQGRVTMTRDTSTSTVYMELSSLRSEDTAVYYCAREEYAPFSAEYFQFWGQGTLVTVSS
VL: not shown
notes: Fab made in E. coli: CH1 with His6/Flag tags from Plasmid A, kappa constant region from Plasmid C; also called APFF G55A
B2: Fab VH1-46_IGHD6-6*01_IGHJ1*01 S102A/S103P/S104F/H111F S54T & L6_IGKJ1*01 (Fab, V domains shown)
VH: QVQLVQSGAEVKKPGASVKVSCKASGYTFTSYYMHWVRQAPGQGLEWMGIINPTGGSTSYAQKFQGRVTMTRDTSTSTVYMELSSLRSEDTAVYYCAREEYAPFSAEYFQFWGQGTLVTVSS
VL: not shown
notes: Fab made in E. coli; CH1 with tags and kappa CL are not included; also called APFF S54T
B3: Fab VH1-46_IGHD6-6*01_IGHJ1*01 S102A/S103P/S104F/H111F S54L & L6_IGKJ1*01 (Fab, V domains shown)
VH: QVQLVQSGAEVKKPGASVKVSCKASGYTFTSYYMHWVRQAPGQGLEWMGIINPLGGSTSYAQKFQGRVTMTRDTSTSTVYMELSSLRSEDTAVYYCAREEYAPFSAEYFQFWGQGTLVTVSS
VL: not shown
notes: Fab made in E. coli; CH1 with tags and kappa CL are not included; also called APFF S54L
B4: Fab VH1-46_IGHD6-6*01_IGHJ1*01 S102A/S103P/S104F/H111F/I51T/N52L/S54T/G56H (APFF TLTH) & L6_IGKJ1*01 (Fab, V domains shown)
VH: QVQLVQSGAEVKKPGASVKVSCKASGYTFTSYYMHWVRQAPGQGLEWMGITLPTGHSTSYAQKFQGRVTMTRDTSTSTVYMELSSLRSEDTAVYYCAREEYAPFSAEYFQFWGQGTLVTVSS
VL: not shown
notes: Fab made in E. coli; CH1 with tags and kappa CL are not included
B5: Fab VH1-46_IGHD6-6*01_IGHJ1*01 S102A/S103P/S104F/H111F/I51V/N52L/S54T/G56H (APFF VLTH) & L6_IGKJ1*01 (Fab, V domains shown)
VH: QVQLVQSGAEVKKPGASVKVSCKASGYTFTSYYMHWVRQAPGQGLEWMGIVLPTGHSTSYAQKFQGRVTMTRDTSTSTVYMELSSLRSEDTAVYYCAREEYAPFSAEYFQFWGQGTLVTVSS
VL: not shown
notes: as for B4
B6: Fab VH1-46_IGHD6-6*01_IGHJ1*01 S102A/S103P/S104F/H111F S57A & L6_IGKJ1*01 (Fab, V domains shown)
VH: QVQLVQSGAEVKKPGASVKVSCKASGYTFTSYYMHWVRQAPGQGLEWMGIINPSGGATSYAQKFQGRVTMTRDTSTSTVYMELSSLRSEDTAVYYCAREEYAPFSAEYFQFWGQGTLVTVSS
VL: not shown
notes: Fab made in E. coli: CH1 with His6/Flag tags from Plasmid A, kappa constant region from Plasmid C; also called APFF S57A
B7: Fab VH1-46_IGHD6-6*01_IGHJ1*01 S102A/S103P/S104F/H111F T58A & L6_IGKJ1*01 (Fab, V domains shown)
VH: QVQLVQSGAEVKKPGASVKVSCKASGYTFTSYYMHWVRQAPGQGLEWMGIINPSGGSASYAQKFQGRVTMTRDTSTSTVYMELSSLRSEDTAVYYCAREEYAPFSAEYFQFWGQGTLVTVSS
VL: not shown
notes: Fab made in E. coli: CH1 with His6/Flag tags from Plasmid A, kappa constant region from Plasmid C; also called APFF T58A
B8: Fab VH1-46_IGHD6-6*01_IGHJ1*01 S102A/S103P/S104F/H111F G56A & L6_IGKJ1*01 (Fab, V domains shown)
VH: QVQLVQSGAEVKKPGASVKVSCKASGYTFTSYYMHWVRQAPGQGLEWMGIINPSGASTSYAQKFQGRVTMTRDTSTSTVYMELSSLRSEDTAVYYCAREEYAPFSAEYFQFWGQGTLVTVSS
VL: not shown
notes: Fab made in E. coli: CH1 with His6/Flag tags from Plasmid A, kappa constant region from Plasmid C; also called APFF G56A
B9: Fab VH1-46_IGHD6-6*01_IGHJ1*01 S102A/S103P/S104F/H111F/I51R/N52L/S54T/G56H (APFF RLTH) & L6_IGKJ1*01 (Fab, V domains shown)
VH: QVQLVQSGAEVKKPGASVKVSCKASGYTFTSYYMHWVRQAPGQGLEWMGIRLPTGHSTSYAQKFQGRVTMTRDTSTSTVYMELSSLRSEDTAVYYCAREEYAPFSAEYFQFWGQGTLVTVSS
VL: not shown
notes: as for B4
B10: Fab VH1-46_IGHD6-6*01_IGHJ1*01 S102A/S103P/S104F/H111F S54Q & L6_IGKJ1*01 (Fab, V domains shown)
VH: QVQLVQSGAEVKKPGASVKVSCKASGYTFTSYYMHWVRQAPGQGLEWMGIINPQGGSTSYAQKFQGRVTMTRDTSTSTVYMELSSLRSEDTAVYYCAREEYAPFSAEYFQFWGQGTLVTVSS
VL: not shown
notes: Fab made in E. coli; also called APFF S54Q
B11: Fab VH1-46_IGHD6-6*01_IGHJ1*01 S102A/S103P/S104F/H111F I50A & L6_IGKJ1*01 (Fab, V domains shown)
VH: QVQLVQSGAEVKKPGASVKVSCKASGYTFTSYYMHWVRQAPGQGLEWMGAINPSGGSTSYAQKFQGRVTMTRDTSTSTVYMELSSLRSEDTAVYYCAREEYAPFSAEYFQFWGQGTLVTVSS
VL: not shown
notes: Fab made in E. coli: CH1 with His6/Flag tags from Plasmid A, kappa constant region from Plasmid C; also called APFF I50A
B12: Fab VH1-46_IGHD6-6*01_IGHJ1*01 S102A/S103P/S104F/H111F S54A & L6_IGKJ1*01 (Fab, V domains shown)
VH: QVQLVQSGAEVKKPGASVKVSCKASGYTFTSYYMHWVRQAPGQGLEWMGIINPAGGSTSYAQKFQGRVTMTRDTSTSTVYMELSSLRSEDTAVYYCAREEYAPFSAEYFQFWGQGTLVTVSS
VL: not shown
notes: Fab made in E. coli: CH1 with His6/Flag tags from Plasmid A, kappa constant region from Plasmid C; also called APFF S54A
B13: Fab VH1-46_IGHD6-6*01_IGHJ1*01 S102A/S103P/S104F/H111F/I51N/N52L/S54T/G56H (APFF NLTH) & L6_IGKJ1*01 (Fab, V domains shown)
VH: QVQLVQSGAEVKKPGASVKVSCKASGYTFTSYYMHWVRQAPGQGLEWMGINLPTGHSTSYAQKFQGRVTMTRDTSTSTVYMELSSLRSEDTAVYYCAREEYAPFSAEYFQFWGQGTLVTVSS
VL: not shown
notes: as for B4

What was measured:
[1] = molecular target: T1, Recombinant Human DLL4 (delta-like protein 4) (human, UniProt Q9NR61 27-524); assay: ELISA on plate-coated DLL4, 100 nM Fab, signal minus noise
T1 construct: Bought recombinant protein (R&D Systems Cat#1506-D4/CF); also called rHuman DLL4; Delta-like 4

[2] = molecular target: T1, Recombinant Human DLL4 (delta-like …); assay: ECL (MSD) multispot binding assay, DLL4 immobilised, 10 nM Fab, DLL4 signal over blank
[3] = molecular target: T2, Recombinant Human DLL4 (delta-like protein 4) (human, UniProt Q9NR61 27-529); assay: ELISA on coated DLL4, 100 nM Fab
T2 construct: Bought recombinant human DLL4 (R&D Systems Cat#1506-D4/CF), coated on the plate; also called rHuman DLL4; Delta-like 4

[4] = molecular target: T2, Recombinant Human DLL4 (delta-like …); assay: 96-well plate ECL (MSD) binding assay on coated DLL4, 10 nM Fab
[5] = molecular target: T2, Recombinant Human DLL4 (delta-like …); assay: ELISA on coated DLL4, 100 nM Fab; remark: listed apart in the source
[6] = molecular target: T2, Recombinant Human DLL4 (delta-like …); assay: 96-well plate ECL (MSD) binding assay on coated DLL4, 10 nM Fab; remark: listed apart in the source

Row | Binder | ELISA (Signal-Noise) [1] | Signal/Noise [10 nM Fab] [2] | ELISA signal [5] | ECL signal [6] | also measured
1 | B1 | 0.02 | 44.2 |  |  | 
2 | B2 |  |  |  |  | ELISA signal [3]: 0.08; ECL signal [4]: 57200
3 | B3 |  |  |  |  | ELISA signal [3]: 0.02; ECL signal [4]: 28200
4 | B4 |  |  | 0.641 | 123000 | 
5 | B5 |  |  | 1.1 | 192000 | 
6 | B6 | 0.39 | 293 |  |  | 
7 | B7 | 0.14 | 142 |  |  | 
8 | B8 | 1.6 | 442 |  |  | 
9 | B9 |  |  | 0.512 | 92400 | 
10 | B10 |  |  |  |  | ELISA signal [3]: 0.07; ECL signal [4]: 41800
11 | B11 | 0.01 | 9.8 |  |  | 
12 | B12 | 0.255 | 122 |  |  | 
13 | B13 |  |  | 1.09 | 126000 | 
